{
  "source": "paper PMC5039624",
  "about": "(Scientific Reports, 2016)",
  "parents": {"B1": {"name": "unnamed (parent)", "chain 1": "SECGKFMWKCKNSNDCCKDLVCSSRWKWCVLASPF", "chain 2": "RGLSDLGGRVRNIGDVMEHPLVELGVSYAALLSVIVVVVEYTMQLSGEYLVRLYLVDLILVIILWADYAYRAYKSGDPAGYVKKTLYEIPALVPAGLLALIEGHLAGLGLFRLVRLLRFLRILLIISRGSKFLSAIADAADK"}},
  "data": [
    {"variants_of": "B1", "experiment": "pull-down", "design": "reference not given here", "conditions": "with partner chain of the complex shown; His6-tagged VSDK micelles immobilized on nickel-NTA beads; read off a plot", "units": {"screen value": "%"}, "values": [
      {"variant": "chain 2 RGLSDLGGRVRNIGDVMEHPLVELGVSYAALLSVIVVVVEATMQLSGEYLVRLYLVDLILVIILWADYAYRAYKSGDPAGYVKKTLYEIPALVPAGLLALIEGHLAGLGLFRLVRLLRFLRILLIISRGSKFLSAIADAADK", "screen value": 8},
      {"variant": "chain 2 RGLSDLGGRVRNIGDVMEHPLVELGVSYAALLSVIVVVVEYTMQLSGEYLVRLYLVDLILVIILWADYAYRAYKSGDPAGYVKKTLYEIPALVPAGLLALIEGHLAGLGLFRLVALLRFLRILLIISRGSKFLSAIADAADK", "screen value": 7},
      {"variant": "chain 2 RGLSDLGGRVRNIGDVMEHPLVELGVSYAALLSVIVVVVEYAMQLSGEYLVRLYLVDLILVIILWADYAYRAYKSGDPAGYVKKTLYEIPALVPAGLLALIEGHLAGLGLFRLVRLLRFLRILLIISRGSKFLSAIADAADK", "screen value": 6},
      {"variant": "chain 2 RGLSDLGGRVRNIGDVMEHPLVELGVSYAALLSVIVVVVEAAMQLSGEYLVRLYLVDLILVIILWADYAYRAYKSGDPAGYVKKTLYEIPALVPAGLLALIEGHLAGLGLFRLVRLLRFLRILLIISRGSKFLSAIADAADK", "screen value": 19},
      {"variant": "chain 2 RGLSDLGGRVRNIGDVMEHPLVELGVSYAALLSVIVVVVEYTMQLSGEYLVRLYLVDLILVIILAADYAYRAYKSGDPAGYVKKTLYEIPALVPAGLLALIEGHLAGLGLFRLVRLLRFLRILLIISRGSKFLSAIADAADK", "screen value": -7},
      {"variant": "chain 2 RGLSDLGGRVRNIGDVMEHPLVELGVSYAALLSVIVVVVEAAMALSGEYLVRLYLVDLILVIILWADYAYRAYKSGDPAGYVKKTLYEIPALVPAGLLALIEGHLAGLGLFRLVRLLRFLRILLIISRGSKFLSAIADAADK", "screen value": 51},
      {"variant": "chain 2 RGLSDLGGRVRNIGDVMEHPLVELGVSYAALLSVIVVVVEYTMQLAGEYLVRLYLVDLILVIILWADYAYRAYKSGDPAGYVKKTLYEIPALVPAGLLALIEGHLAGLGLFRLVRLLRFLRILLIISRGSKFLSAIADAADK", "screen value": 11}
    ]}
  ]
}
